Test results: ChEMBL document CHEMBL2146416

Key:
Conditions in all cases: Sus scrofa
NCc1csc(C(=O)O)c1 [1] = assay: (§1) Activity of pig GABA aminotransferase using alpha-ketoglutarate as substrate after 16 hrs by Hanes-Woolf plot analysis
NCc1ccc(C(=O)O)s1 [2] = assay: as §1
NCc1coc(C(=O)O)c1 [3] = assay: as §1
NCc1ccc(C(=O)O)[nH]1 [4] = assay: as §1
NCc1cocc1C(=O)O [5] = assay: as §1
NCc1cscc1C(=O)O = assay: as §1
NCc1ccc(C(=O)O)o1 [6] = assay: as §1
NCc1c[nH]c(C(=O)O)c1 [7] = assay: as §1
NCc1csc(C(=O)O)c1 [8] = assay: (§2) Ratio of Kcat to Km for pig GABA aminotransferase
NCc1ccc(C(=O)O)s1 [9] = assay: as §2
NCc1coc(C(=O)O)c1 [10] = assay: as §2
NCc1ccc(C(=O)O)[nH]1 [11] = assay: as §2
NCc1cocc1C(=O)O [12] = assay: as §2
NCc1ccc(C(=O)O)o1 [13] = assay: as §2
NCc1c[nH]c(C(=O)O)c1 [14] = assay: as §2

Sequence of 4-aminobutyrate aminotransferase, mitochondrial (Sus scrofa), P80147 (P80147 whole entry): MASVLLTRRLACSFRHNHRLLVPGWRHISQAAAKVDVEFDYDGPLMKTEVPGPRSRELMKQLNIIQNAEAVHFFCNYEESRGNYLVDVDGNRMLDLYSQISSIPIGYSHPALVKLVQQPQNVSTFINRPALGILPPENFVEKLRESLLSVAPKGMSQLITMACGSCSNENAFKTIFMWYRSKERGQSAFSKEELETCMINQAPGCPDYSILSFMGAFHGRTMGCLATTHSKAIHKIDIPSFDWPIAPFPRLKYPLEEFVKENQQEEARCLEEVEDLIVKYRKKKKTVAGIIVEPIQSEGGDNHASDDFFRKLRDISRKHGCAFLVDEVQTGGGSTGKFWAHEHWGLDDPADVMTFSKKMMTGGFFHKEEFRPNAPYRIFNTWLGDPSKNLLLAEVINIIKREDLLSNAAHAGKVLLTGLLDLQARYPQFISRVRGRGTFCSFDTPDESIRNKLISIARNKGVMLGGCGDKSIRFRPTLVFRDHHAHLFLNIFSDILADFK

Question: For “4-aminobutyrate aminotransferase, mitochondrial (Sus scrofa), P80147”, which Km (NCc1csc(C(=O)O)c1 [1]) is on record?
Answer: 1700 µM

Question: And the kcat (NCc1csc(C(=O)O)c1 [1])?
Answer: 5.2 ×10⁻³ /min

Question: What about the Km (NCc1ccc(C(=O)O)s1 [2]) of the same substance?
Answer: 6300 µM

Question: What about the kcat (NCc1ccc(C(=O)O)s1 [2]) of the same substance?
Answer: 1 ×10⁻² /min

Question: And the Km (NCc1coc(C(=O)O)c1 [3])?
Answer: 310 µM

Question: And the kcat (NCc1coc(C(=O)O)c1 [3])?
Answer: 2.3 ×10⁻³ /min

Question: And the Km (NCc1ccc(C(=O)O)[nH]1 [4])?
Answer: 9500 µM

Question: What about the kcat (NCc1ccc(C(=O)O)[nH]1 [4]) of the same substance?
Answer: 1.5 ×10⁻³ /min

Question: What about the Km (NCc1cocc1C(=O)O [5]) of the same substance?
Answer: 2800 µM

Question: And the kcat (NCc1cocc1C(=O)O [5])?
Answer: 8.3 ×10⁻⁴ /min

Question: What about the Km (NCc1cscc1C(=O)O) of the same substance?
Answer: > 10000 µM

Question: What about the Km (NCc1ccc(C(=O)O)o1 [6]) of the same substance?
Answer: 2100 µM

Question: What about the kcat (NCc1ccc(C(=O)O)o1 [6]) of the same substance?
Answer: 3.4 ×10⁻² /min

Question: What about the Km (NCc1c[nH]c(C(=O)O)c1 [7]) of the same substance?
Answer: 1400 µM

Question: And the kcat (NCc1c[nH]c(C(=O)O)c1 [7])?
Answer: 3.4 ×10⁻³ /min

Question: What about the kcat/Km (NCc1csc(C(=O)O)c1 [8]) of the same substance?
Answer: 0.00517 M⁻¹ s⁻¹

Question: What about the kcat/Km (NCc1ccc(C(=O)O)s1 [9]) of the same substance?
Answer: 0.0267 M⁻¹ s⁻¹

Question: What about the kcat/Km (NCc1coc(C(=O)O)c1 [10]) of the same substance?
Answer: 0.123 M⁻¹ s⁻¹

Question: And the kcat/Km (NCc1ccc(C(=O)O)[nH]1 [11])?
Answer: 0.00267 M⁻¹ s⁻¹

Question: What about the kcat/Km (NCc1cocc1C(=O)O [12]) of the same substance?
Answer: 0.005 M⁻¹ s⁻¹

Question: What about the kcat/Km (NCc1ccc(C(=O)O)o1 [13]) of the same substance?
Answer: 0.267 M⁻¹ s⁻¹

Question: And the kcat/Km (NCc1c[nH]c(C(=O)O)c1 [14])?
Answer: 0.04 M⁻¹ s⁻¹
